US20200115430A1 (I2O THERAPEUTICS, published 2020)
Starred links: 1 amine or outer side, 2 acyl side, 3 side chain; linkers in the order of their positions; H or OH if unused. Positions of bridges follow the written chain, without caps; N, C: chain ends. Non-standard residues stand in square brackets, D forms with d. Groups on a side chain read outwards from the residue. Primed or numbered codes have the meaning given here. No end group written: not given here. *: point of attachment. dpeg″ = —[CO(CH2)O(CH2)2O(CH2)NH]— spacer unit, O=C(COCCOCN[*:1])[*:2]; C20 diacid = O=C(O)CCCCCCCCCCCCCCCCCCC(=O)*; C18 diacid = O=C(O)CCCCCCCCCCCCCCCCC(=O)*; γGlu = O=C(O)[C@H](CCC(=O)[*:2])N[*:1]; Stearoyl = CCCCCCCCCCCCCCCCCC(=O)*; Palmitoyl = CCCCCCCCCCCCCCCC(=O)*

T1: human amylin 3 receptor (human, UniProt P30988 25-474; O60896 24-148)
T1 sequence (looked up) 1: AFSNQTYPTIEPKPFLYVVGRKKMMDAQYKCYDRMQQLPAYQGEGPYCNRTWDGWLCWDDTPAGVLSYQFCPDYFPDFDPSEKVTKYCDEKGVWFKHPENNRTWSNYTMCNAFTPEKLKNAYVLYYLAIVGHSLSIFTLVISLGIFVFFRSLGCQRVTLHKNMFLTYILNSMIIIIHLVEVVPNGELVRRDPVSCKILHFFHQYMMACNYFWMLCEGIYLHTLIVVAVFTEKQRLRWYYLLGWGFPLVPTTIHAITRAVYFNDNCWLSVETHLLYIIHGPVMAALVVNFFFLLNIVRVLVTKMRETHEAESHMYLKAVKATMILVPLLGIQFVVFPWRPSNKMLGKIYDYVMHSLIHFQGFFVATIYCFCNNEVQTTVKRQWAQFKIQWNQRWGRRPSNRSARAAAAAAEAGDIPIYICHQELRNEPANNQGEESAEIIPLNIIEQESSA
T1 sequence (looked up) 2: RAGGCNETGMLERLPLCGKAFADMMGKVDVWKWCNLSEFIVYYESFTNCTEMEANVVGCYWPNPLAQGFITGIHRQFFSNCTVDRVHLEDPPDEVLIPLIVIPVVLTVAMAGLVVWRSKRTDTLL

T2: human calcitonin receptor (human, UniProt P30988 25-474)
T2 sequence (looked up): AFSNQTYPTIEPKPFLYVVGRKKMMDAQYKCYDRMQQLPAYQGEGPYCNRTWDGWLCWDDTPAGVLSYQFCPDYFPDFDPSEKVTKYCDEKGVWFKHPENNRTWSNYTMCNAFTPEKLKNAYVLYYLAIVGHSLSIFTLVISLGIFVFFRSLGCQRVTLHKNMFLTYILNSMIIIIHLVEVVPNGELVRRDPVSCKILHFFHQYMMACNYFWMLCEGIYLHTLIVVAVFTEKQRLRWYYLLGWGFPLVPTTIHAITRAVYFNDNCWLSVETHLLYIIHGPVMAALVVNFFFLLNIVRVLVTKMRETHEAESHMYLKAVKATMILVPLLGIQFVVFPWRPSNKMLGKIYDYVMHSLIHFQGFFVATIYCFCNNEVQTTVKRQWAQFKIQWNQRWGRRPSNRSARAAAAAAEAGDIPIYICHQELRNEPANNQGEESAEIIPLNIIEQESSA


How the values were obtained:
[1] = biological target: T1, human amylin 3 receptor; assay: cell-based or functional assay
[2] = biological target: T2, human calcitonin receptor; assay: cell-based or functional assay

Row | Binder | pEC50 (cAMP accumulation), 0% HSA [1] [pEC50] | pEC50 (cAMP accumulation), 0.1% HSA [1] [pEC50] | pEC50 (cAMP accumulation), 4% HSA [1] [pEC50] | pEC50 (cAMP accumulation), 0% HSA [2] [pEC50] | pEC50 (cAMP accumulation), 0.1% HSA [2] [pEC50] | pEC50 (cAMP accumulation), 4% HSA [2] [pEC50]
1 | SCNTSTCATQRLAN[dK]([γGlu-γGlu-dpeg″-C20 diacid])LHKSSNNFGPILPPTKVGSETY-NH2 (disulfide 2-7; N-terminus assumed; SMILES CC[C@H](C)[C@H](NC(=O)[C@@H]1CCCN1C(=O)CNC(=O)[C@H](Cc1ccccc1)NC(=O)[C@H](CC(N)=O)NC(=O)[C@H](CC(N)=O)NC(=O)[C@H](CO)NC(=O)[C@H](CO)NC(=O)[C@H](CCCCN)NC(=O)[C@H](Cc1c[nH]cn1)NC(=O)[C@H](CC(C)C)NC(=O)[C@@H](CCCCNC(=O)CC[C@H](NC(=O)CC[C@H](NC(=O)COCCOCNC(=O)CCCCCCCCCCCCCCCCCCC(=O)O)C(=O)O)C(=O)O)NC(=O)[C@H](CC(N)=O)NC(=O)[C@H](C)NC(=O)[C@H](CC(C)C)NC(=O)[C@H](CCCNC(=N)N)NC(=O)[C@H](CCC(N)=O)NC(=O)[C@@H](NC(=O)[C@H](C)NC(=O)[C@@H]1CSSC[C@H](NC(=O)[C@@H](N)CO)C(=O)N[C@@H](CC(N)=O)C(=O)N[C@@H]([C@@H](C)O)C(=O)N[C@@H](CO)C(=O)N[C@@H]([C@@H](C)O)C(=O)N1)[C@@H](C)O)C(=O)N[C@@H](CC(C)C)C(=O)N1CCC[C@H]1C(=O)N1CCC[C@H]1C(=O)N[C@H](C(=O)N[C@@H](CCCCN)C(=O)N[C@H](C(=O)NCC(=O)N[C@@H](CO)C(=O)N[C@@H](CCC(=O)O)C(=O)N[C@H](C(=O)N[C@@H](Cc1ccc(O)cc1)C(N)=O)[C@@H](C)O)C(C)C)[C@@H](C)O) [Compound A96] | 11.7 | 9.7 | 8.5 | 10.8 | 8.5 | 8
2 | K([γGlu-γGlu-C20 diacid])CNTSTCATQRLANELHKSSNNFGPILPPTKVGSETY-NH2 (disulfide 2-7; N-terminus assumed; SMILES CC[C@H](C)[C@H](NC(=O)[C@@H]1CCCN1C(=O)CNC(=O)[C@H](Cc1ccccc1)NC(=O)[C@H](CC(N)=O)NC(=O)[C@H](CC(N)=O)NC(=O)[C@H](CO)NC(=O)[C@H](CO)NC(=O)[C@H](CCCCN)NC(=O)[C@H](Cc1c[nH]cn1)NC(=O)[C@H](CC(C)C)NC(=O)[C@H](CCC(=O)O)NC(=O)[C@H](CC(N)=O)NC(=O)[C@H](C)NC(=O)[C@H](CC(C)C)NC(=O)[C@H](CCCNC(=N)N)NC(=O)[C@H](CCC(N)=O)NC(=O)[C@@H](NC(=O)[C@H](C)NC(=O)[C@@H]1CSSC[C@H](NC(=O)[C@@H](N)CCCCNC(=O)CC[C@H](NC(=O)CC[C@H](NC(=O)CCCCCCCCCCCCCCCCCCC(=O)O)C(=O)O)C(=O)O)C(=O)N[C@@H](CC(N)=O)C(=O)N[C@@H]([C@@H](C)O)C(=O)N[C@@H](CO)C(=O)N[C@@H]([C@@H](C)O)C(=O)N1)[C@@H](C)O)C(=O)N[C@@H](CC(C)C)C(=O)N1CCC[C@H]1C(=O)N1CCC[C@H]1C(=O)N[C@H](C(=O)N[C@@H](CCCCN)C(=O)N[C@H](C(=O)NCC(=O)N[C@@H](CO)C(=O)N[C@@H](CCC(=O)O)C(=O)N[C@H](C(=O)N[C@@H](Cc1ccc(O)cc1)C(N)=O)[C@@H](C)O)C(C)C)[C@@H](C)O) [Compound A64] | 12 | 10.4 | 9.1 | 11.2 | 9 | 8.1
3 | SCNTSTCATQRLANE[dK]([γGlu-γGlu-Palmitoyl])HKSSNNFGPILPPTKVGSETY-NH2 (disulfide 2-7; N-terminus assumed; SMILES CCCCCCCCCCCCCCCC(=O)N[C@@H](CCC(=O)N[C@@H](CCC(=O)NCCCC[C@@H](NC(=O)[C@H](CCC(=O)O)NC(=O)[C@H](CC(N)=O)NC(=O)[C@H](C)NC(=O)[C@H](CC(C)C)NC(=O)[C@H](CCCNC(=N)N)NC(=O)[C@H](CCC(N)=O)NC(=O)[C@@H](NC(=O)[C@H](C)NC(=O)[C@@H]1CSSC[C@H](NC(=O)[C@@H](N)CO)C(=O)N[C@@H](CC(N)=O)C(=O)N[C@@H]([C@@H](C)O)C(=O)N[C@@H](CO)C(=O)N[C@@H]([C@@H](C)O)C(=O)N1)[C@@H](C)O)C(=O)N[C@@H](Cc1c[nH]cn1)C(=O)N[C@@H](CCCCN)C(=O)N[C@@H](CO)C(=O)N[C@@H](CO)C(=O)N[C@@H](CC(N)=O)C(=O)N[C@@H](CC(N)=O)C(=O)N[C@@H](Cc1ccccc1)C(=O)NCC(=O)N1CCC[C@H]1C(=O)N[C@H](C(=O)N[C@@H](CC(C)C)C(=O)N1CCC[C@H]1C(=O)N1CCC[C@H]1C(=O)N[C@H](C(=O)N[C@@H](CCCCN)C(=O)N[C@H](C(=O)NCC(=O)N[C@@H](CO)C(=O)N[C@@H](CCC(=O)O)C(=O)N[C@H](C(=O)N[C@@H](Cc1ccc(O)cc1)C(N)=O)[C@@H](C)O)C(C)C)[C@@H](C)O)[C@@H](C)CC)C(=O)O)C(=O)O) [Compound A27] | 12.8 | 11.8 | 10.4 | 11.9 | 10.6 | 9
4 | SCNTSTCATQRLANELK([dpeg″-dpeg″-γGlu-C18 diacid])KSSNNFGPILPPTKVGSETY-NH2 (disulfide 2-7; N-terminus assumed; SMILES CC[C@H](C)[C@H](NC(=O)[C@@H]1CCCN1C(=O)CNC(=O)[C@H](Cc1ccccc1)NC(=O)[C@H](CC(N)=O)NC(=O)[C@H](CC(N)=O)NC(=O)[C@H](CO)NC(=O)[C@H](CO)NC(=O)[C@H](CCCCN)NC(=O)[C@H](CCCCNC(=O)COCCOCNC(=O)COCCOCNC(=O)CC[C@H](NC(=O)CCCCCCCCCCCCCCCCC(=O)O)C(=O)O)NC(=O)[C@H](CC(C)C)NC(=O)[C@H](CCC(=O)O)NC(=O)[C@H](CC(N)=O)NC(=O)[C@H](C)NC(=O)[C@H](CC(C)C)NC(=O)[C@H](CCCNC(=N)N)NC(=O)[C@H](CCC(N)=O)NC(=O)[C@@H](NC(=O)[C@H](C)NC(=O)[C@@H]1CSSC[C@H](NC(=O)[C@@H](N)CO)C(=O)N[C@@H](CC(N)=O)C(=O)N[C@@H]([C@@H](C)O)C(=O)N[C@@H](CO)C(=O)N[C@@H]([C@@H](C)O)C(=O)N1)[C@@H](C)O)C(=O)N[C@@H](CC(C)C)C(=O)N1CCC[C@H]1C(=O)N1CCC[C@H]1C(=O)N[C@H](C(=O)N[C@@H](CCCCN)C(=O)N[C@H](C(=O)NCC(=O)N[C@@H](CO)C(=O)N[C@@H](CCC(=O)O)C(=O)N[C@H](C(=O)N[C@@H](Cc1ccc(O)cc1)C(N)=O)[C@@H](C)O)C(C)C)[C@@H](C)O) [Compound A99] | 10.9 | 9.5 | 8.6 | 10.4 | 8.5 | 7.6
5 | SCNTSTCATQRLANE[dK]([γGlu-γGlu-γGlu-Stearoyl])HKSSNNFGPILPPTKVGSETY-NH2 (disulfide 2-7; N-terminus assumed; SMILES CCCCCCCCCCCCCCCCCC(=O)N[C@@H](CCC(=O)N[C@@H](CCC(=O)N[C@@H](CCC(=O)NCCCC[C@@H](NC(=O)[C@H](CCC(=O)O)NC(=O)[C@H](CC(N)=O)NC(=O)[C@H](C)NC(=O)[C@H](CC(C)C)NC(=O)[C@H](CCCNC(=N)N)NC(=O)[C@H](CCC(N)=O)NC(=O)[C@@H](NC(=O)[C@H](C)NC(=O)[C@@H]1CSSC[C@H](NC(=O)[C@@H](N)CO)C(=O)N[C@@H](CC(N)=O)C(=O)N[C@@H]([C@@H](C)O)C(=O)N[C@@H](CO)C(=O)N[C@@H]([C@@H](C)O)C(=O)N1)[C@@H](C)O)C(=O)N[C@@H](Cc1c[nH]cn1)C(=O)N[C@@H](CCCCN)C(=O)N[C@@H](CO)C(=O)N[C@@H](CO)C(=O)N[C@@H](CC(N)=O)C(=O)N[C@@H](CC(N)=O)C(=O)N[C@@H](Cc1ccccc1)C(=O)NCC(=O)N1CCC[C@H]1C(=O)N[C@H](C(=O)N[C@@H](CC(C)C)C(=O)N1CCC[C@H]1C(=O)N1CCC[C@H]1C(=O)N[C@H](C(=O)N[C@@H](CCCCN)C(=O)N[C@H](C(=O)NCC(=O)N[C@@H](CO)C(=O)N[C@@H](CCC(=O)O)C(=O)N[C@H](C(=O)N[C@@H](Cc1ccc(O)cc1)C(N)=O)[C@@H](C)O)C(C)C)[C@@H](C)O)[C@@H](C)CC)C(=O)O)C(=O)O)C(=O)O) [Compound A13] | 12.4 | 11.4 | 10.1 | 11.6 | 10.3 | 8.5
6 | SCNTSTCATQRLAN[dK]([γGlu-γGlu-dpeg″-γGlu-C20 diacid])LHKSSNNFGPILPPTKVGSETY-NH2 (disulfide 2-7) [Compound A100] | 11.1 | 8.8 | 7.6 | 10.5 | 8.1 | 7.1
